# FireProtDB (doi:10.1093/protein/12.8.663)
# Where “and” joins values, the source holds several entries; their conditions need not be identical. Identical values can stand only once.
# B1: Lysozyme C, P61626 (parent)
# chain: MKALIVLGLVLLSVTVQGKVFERCELARTLKRLGMDGYRGISLANWMCLAKWESGYNTRATNYNAGDRSTDYGIFQINSRYWCNDGKTPGAVNACHLSCSALLQDNIADAVACAKRVVRDPQGIRAWVAWRNRCQNRDVRQYVQGCGV
# Variants of: B1
# Conditions: Homo sapiens; pH 2.7; Thermal; DSC; glycine 0.05 M; reversible: yes; structure 1LZ1; whole UniProt chain shown
Variant,Tm,"change of melting temperature, mutant - wild type (higher = more stable) [°C]",heat capacity change of unfolding [kcal/mol/K],unfolding enthalpy (calorimetric) [kcal/mol]
N45L,65.3 °C,0.4,–,–
V92S,63.7 °C and 64.9 °C,-1.2,1.22,108
G55Q,64.1 °C and 64.9 °C,-0.8,1.15,108
E53L,63.1 °C and 64.9 °C,-1.8,1.05,99
R68G,65.8 °C and 64.9 °C,0.9,1.46,100
H96G,64.4 °C and 64.9 °C,-0.5,1.58,109
A50L,64.6 °C and 64.9 °C,-0.3,1.27,98.2
A114M,65 °C and 64.9 °C,0.1,1.31,98.7
V118F,–,-6.5,0.93,87.2
Q76G,–,5.7,1.34,109

# Same assay, conditions: Homo sapiens; pH 2.61; Thermal; DSC; glycine 0.05 M; reversible: yes; structure 1LZ1; whole UniProt chain shown
Variant,Tm [°C],unfolding enthalpy (calorimetric) [kcal/mol],unfolding enthalpy (van 't Hoff) [kcal/mol]
V92S,62.1,105,110
A50L,63.1,94.9,97.8

# Same assay, conditions: Homo sapiens; pH 2.7; 64.9 °C; Thermal; DSC; glycine 0.05 M; reversible: yes; structure 1LZ1; whole UniProt chain shown
row,Variant,ddG of mutation (higher = less stable) [kcal/mol]
1,V92S,0.38
2,G55Q,0.26
3,E53L,0.53
4,R68G,-0.26
5,H96G,0.12
6,A50L,0.1
7,A114M,-0.02
8,V118F,1.65
9,Q76G,-1.86

# Same assay, conditions: Homo sapiens; pH 2.83; Thermal; DSC; glycine 0.05 M; reversible: yes; structure 1LZ1; whole UniProt chain shown
Variant,Tm [°C],unfolding enthalpy (calorimetric) [kcal/mol],unfolding enthalpy (van 't Hoff) [kcal/mol]
V92S,66,109,115
A50L,66.9,102,104
V118F,61,84.6,92

# Same assay, conditions: Homo sapiens; pH 3.28; Thermal; DSC; glycine 0.05 M; reversible: yes; structure 1LZ1; whole UniProt chain shown
Variant,Tm [°C],unfolding enthalpy (calorimetric) [kcal/mol],unfolding enthalpy (van 't Hoff) [kcal/mol]
V92S,72.2,117,122

# Same assay, conditions: Homo sapiens; pH 2.48; Thermal; DSC; glycine 0.05 M; reversible: yes; structure 1LZ1; whole UniProt chain shown
Variant,Tm [°C],unfolding enthalpy (calorimetric) [kcal/mol],unfolding enthalpy (van 't Hoff) [kcal/mol]
G55Q,60.7,102,108

# Same assay, conditions: Homo sapiens; pH 2.73; Thermal; DSC; glycine 0.05 M; reversible: yes; structure 1LZ1; whole UniProt chain shown
Variant,Tm [°C],unfolding enthalpy (calorimetric) [kcal/mol],unfolding enthalpy (van 't Hoff) [kcal/mol]
G55Q,64.5,108,111

# Same assay, conditions: Homo sapiens; pH 3.09; Thermal; DSC; glycine 0.05 M; reversible: yes; structure 1LZ1; whole UniProt chain shown
Variant,Tm [°C],unfolding enthalpy (calorimetric) [kcal/mol],unfolding enthalpy (van 't Hoff) [kcal/mol]
G55Q,70.1,113,118

# Same assay, conditions: Homo sapiens; pH 2.56; Thermal; DSC; glycine 0.05 M; reversible: yes; structure 1LZ1; whole UniProt chain shown
Variant,Tm [°C],unfolding enthalpy (calorimetric) [kcal/mol],unfolding enthalpy (van 't Hoff) [kcal/mol]
E53L,61.2,94.9,105
A114M,62.5,95.1,98

# Same assay, conditions: Homo sapiens; pH 3.25; Thermal; DSC; glycine 0.05 M; reversible: yes; structure 1LZ1; whole UniProt chain shown
Variant,Tm [°C],unfolding enthalpy (calorimetric) [kcal/mol],unfolding enthalpy (van 't Hoff) [kcal/mol]
E53L,70.8,105,110

# Same assay, conditions: Homo sapiens; pH 2.58; Thermal; DSC; glycine 0.05 M; reversible: yes; structure 1LZ1; whole UniProt chain shown
Variant,Tm [°C],unfolding enthalpy (calorimetric) [kcal/mol],unfolding enthalpy (van 't Hoff) [kcal/mol]
R68G,63.7,99.9,111

# Same assay, conditions: Homo sapiens; pH 2.78; Thermal; DSC; glycine 0.05 M; reversible: yes; structure 1LZ1; whole UniProt chain shown
Variant,Tm [°C],unfolding enthalpy (calorimetric) [kcal/mol],unfolding enthalpy (van 't Hoff) [kcal/mol]
R68G,67.3,102,114
Q76G,72.5,119,127

# Same assay, conditions: Homo sapiens; pH 3.11; Thermal; DSC; glycine 0.05 M; reversible: yes; structure 1LZ1; whole UniProt chain shown
Variant,Tm [°C],unfolding enthalpy (calorimetric) [kcal/mol],unfolding enthalpy (van 't Hoff) [kcal/mol]
R68G,73,113,123

# Same assay, conditions: Homo sapiens; pH 2.53; Thermal; DSC; glycine 0.05 M; reversible: yes; structure 1LZ1; whole UniProt chain shown
Variant,Tm [°C],unfolding enthalpy (calorimetric) [kcal/mol],unfolding enthalpy (van 't Hoff) [kcal/mol]
H96G,61.5,103,108

# Same assay, conditions: Homo sapiens; pH 2.75; Thermal; DSC; glycine 0.05 M; reversible: yes; structure 1LZ1; whole UniProt chain shown
Variant,Tm [°C],unfolding enthalpy (calorimetric) [kcal/mol],unfolding enthalpy (van 't Hoff) [kcal/mol]
H96G,65.2,110,112

# Same assay, conditions: Homo sapiens; pH 3.1; Thermal; DSC; glycine 0.05 M; reversible: yes; structure 1LZ1; whole UniProt chain shown
Variant,Tm [°C],unfolding enthalpy (calorimetric) [kcal/mol],unfolding enthalpy (van 't Hoff) [kcal/mol]
H96G,71,118,120

# Same assay, conditions: Homo sapiens; pH 3.23; Thermal; DSC; glycine 0.05 M; reversible: yes; structure 1LZ1; whole UniProt chain shown
Variant,Tm [°C],unfolding enthalpy (calorimetric) [kcal/mol],unfolding enthalpy (van 't Hoff) [kcal/mol]
A50L,73.2,108,111

# Same assay, conditions: Homo sapiens; pH 3.19; Thermal; DSC; glycine 0.05 M; reversible: yes; structure 1LZ1; whole UniProt chain shown
Variant,Tm [°C],unfolding enthalpy (calorimetric) [kcal/mol],unfolding enthalpy (van 't Hoff) [kcal/mol]
A114M,72.9,109,112

# Same assay, conditions: Homo sapiens; pH 2.62; Thermal; DSC; glycine 0.05 M; reversible: yes; structure 1LZ1; whole UniProt chain shown
Variant,Tm [°C],unfolding enthalpy (calorimetric) [kcal/mol],unfolding enthalpy (van 't Hoff) [kcal/mol]
V118F,56.8,79.1,85.1

# Same assay, conditions: Homo sapiens; pH 3.26; Thermal; DSC; glycine 0.05 M; reversible: yes; structure 1LZ1; whole UniProt chain shown
Variant,Tm [°C],unfolding enthalpy (calorimetric) [kcal/mol],unfolding enthalpy (van 't Hoff) [kcal/mol]
V118F,67.6,89.4,95.4

# Same assay, conditions: Homo sapiens; pH 2.59; Thermal; DSC; glycine 0.05 M; reversible: yes; structure 1LZ1; whole UniProt chain shown
Variant,Tm [°C],unfolding enthalpy (calorimetric) [kcal/mol],unfolding enthalpy (van 't Hoff) [kcal/mol]
Q76G,68.3,113,121

# Same assay, conditions: Homo sapiens; pH 3.15; Thermal; DSC; glycine 0.05 M; reversible: yes; structure 1LZ1; whole UniProt chain shown
Variant,Tm [°C],unfolding enthalpy (calorimetric) [kcal/mol],unfolding enthalpy (van 't Hoff) [kcal/mol]
Q76G,78.7,127,135
